# Changes are numbered by the printed parent chain.
# T1: human Kell glycoprotein, K form (KEL1) (human, UniProt P23276 1-732)
# T1 construct: whole, on cells; On human K/K or K+k+ RBCs and on RBCs of K transgenic mice; also called K antigen; K variant
# T1 sequence (looked up): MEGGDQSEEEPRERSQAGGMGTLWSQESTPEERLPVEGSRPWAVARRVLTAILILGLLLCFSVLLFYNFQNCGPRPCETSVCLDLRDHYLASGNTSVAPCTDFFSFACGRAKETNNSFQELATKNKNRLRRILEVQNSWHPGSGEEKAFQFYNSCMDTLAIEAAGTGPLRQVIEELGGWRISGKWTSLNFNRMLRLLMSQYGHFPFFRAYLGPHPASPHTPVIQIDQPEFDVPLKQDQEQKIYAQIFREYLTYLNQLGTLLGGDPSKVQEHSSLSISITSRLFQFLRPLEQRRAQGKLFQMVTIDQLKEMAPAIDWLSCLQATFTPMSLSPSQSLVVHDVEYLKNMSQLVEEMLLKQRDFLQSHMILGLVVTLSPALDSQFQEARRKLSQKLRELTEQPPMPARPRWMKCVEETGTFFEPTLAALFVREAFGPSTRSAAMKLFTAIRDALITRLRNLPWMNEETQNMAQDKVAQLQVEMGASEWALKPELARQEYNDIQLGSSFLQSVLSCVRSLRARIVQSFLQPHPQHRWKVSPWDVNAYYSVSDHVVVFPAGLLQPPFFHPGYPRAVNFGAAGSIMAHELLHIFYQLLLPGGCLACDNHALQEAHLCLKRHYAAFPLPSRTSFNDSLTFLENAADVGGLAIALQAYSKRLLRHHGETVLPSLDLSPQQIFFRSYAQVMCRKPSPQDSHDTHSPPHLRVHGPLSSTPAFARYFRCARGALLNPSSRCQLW
# T2: human Kell glycoprotein, k form (KEL2) (human, UniProt P23276 1-732)
# T2 construct: whole, on cells; On human k/k or K-k+ RBCs; also called k antigen
# T2 sequence (looked up): T1 sequence (looked up) with M193T
# B1: PUMA 1 human IgG1-03 isoallotype (antibody)
# heavy: EVQLQQSGPELVKPGASVKMSCKASGYTFTDYYMKWVKQSHGKSLEWIGDLNPNNGDTFYNQKFKGKATLTVDKSSSTAYIQLNSLTSEDSAVYYCAREAGSSFGSSCNYWGQGTTLTVS
# light: SVVMTQTPKFLLVSAGDRVTITCKASQTVSKDVAWYQQQPGQSPKLLIYYASNRYTGVPDRFTGSGYGTDFTFTISTVQAEDLAVYFCQQDYSSPYTFGGGTKLEIK
# notes: Isoallotype named in CLM-00007; not shown: human IgG1 heavy chain constant region, isoallotype IGHG1*03; human kappa light chain constant region (vector pFUSE2-CLIg-hk)
# B2: PUMA 1 human IgG2-02 isoallotype (antibody)
# heavy: B1 heavy
# light: B1 light
# notes: Isoallotype named in CLM-00007; not shown: human IgG2 heavy chain constant region, isoallotype IGHG2*02; human kappa light chain constant region (vector pFUSE2-CLIg-hk)
# B3: PUMA 1 human IgG2-06 isoallotype (antibody)
# heavy: B1 heavy
# light: B1 light
# notes: Isoallotype named in CLM-00007; not shown: human IgG2 heavy chain constant region, isoallotype IGHG2*06; human kappa light chain constant region (vector pFUSE2-CLIg-hk)
# B4: PUMA 1 human IgG3-04 isoallotype (antibody)
# heavy: B1 heavy
# light: B1 light
# notes: Isoallotype named in CLM-00007; not shown: human IgG3 heavy chain constant region, isoallotype IGHG3*04; human kappa light chain constant region (vector pFUSE2-CLIg-hk)
# B5: PUMA 1 human IgG3-08 isoallotype (antibody)
# heavy: B1 heavy
# light: B1 light
# notes: Isoallotype named in CLM-00007; not shown: human IgG3 heavy chain constant region, isoallotype IGHG3*08; human kappa light chain constant region (vector pFUSE2-CLIg-hk)
# B6: PUMA 1 human IgG3-06 isoallotype (antibody)
# heavy: B1 heavy
# light: B1 light
# notes: Isoallotype named in CLM-00007; also called PUMA1-IgG3-6; not shown: human IgG3 heavy chain constant region, isoallotype IGHG3*06; human kappa light chain constant region (vector pFUSE2-CLIg-hk)
# B7: PUMA 1 human IgG1-01v2 isoallotype (antibody)
# heavy: B1 heavy
# light: B1 light
# notes: Isoallotype named in CLM-00007; also called IGHG1*01v2; not shown: human IgG1 heavy chain constant region, isoallotype IGHG1*01v2; human kappa light chain constant region (vector pFUSE2-CLIg-hk)
# B8: PUMA 1 human IgG1-04v2 isoallotype (antibody)
# heavy: B1 heavy
# light: B1 light
# notes: Isoallotype named in CLM-00007; also called IGHG1*04v2; not shown: human IgG1 heavy chain constant region, isoallotype IGHG1*04v2; human kappa light chain constant region (vector pFUSE2-CLIg-hk)
# B9: PUMA 1 human IgG3-03 isoallotype (antibody)
# heavy: B1 heavy
# light: B1 light
# notes: also called PUMA1-IgG3-03; not shown: human kappa light chain constant region (vector pFUSE2-CLIg-hk)
# B10: PUMA 1 human IgG2-04 isoallotype (antibody)
# heavy: B1 heavy
# light: B1 light
# notes: Isoallotype named in CLM-00007; not shown: human IgG2 heavy chain constant region, isoallotype IGHG2*04; human kappa light chain constant region (vector pFUSE2-CLIg-hk)
# B11: PUMA 1 human IgG1-08 isoallotype (antibody)
# heavy: B1 heavy
# light: B1 light
# notes: Isoallotype named in CLM-00007; not shown: human IgG1 heavy chain constant region, isoallotype IGHG1*08; human kappa light chain constant region (vector pFUSE2-CLIg-hk)
# B12: PUMA 1 human IgG1-07 isoallotype (antibody)
# heavy: B1 heavy
# light: B1 light
# notes: Isoallotype named in CLM-00007; not shown: human IgG1 heavy chain constant region, isoallotype IGHG1*07; human kappa light chain constant region (vector pFUSE2-CLIg-hk)
# B13: PUMA 1 human IgG1-05 isoallotype (antibody)
# heavy: B1 heavy
# light: B1 light
# notes: Isoallotype named in CLM-00007; not shown: human IgG1 heavy chain constant region, isoallotype IGHG1*05; human kappa light chain constant region (vector pFUSE2-CLIg-hk)
# B14: PUMA 1 human IgG1 (canonical, isoallotype IgG1-01) (antibody)
# heavy: not shown
# light: B1 light
# notes: also called PUMA1-IgG1; PUMA 1 IgG1; not shown: human kappa light chain constant region (vector pFUSE2-CLIg-hk)
# B15: PUMA 1 human IgG2 (canonical, isoallotype IgG2-01) (antibody)
# heavy: EVQLQQSGPELVKPGASVKMSCKASGYTFTDYYMKWVKQSHGKSLEWIGDLNPNNGDTFYNQKFKGKATLTVDKSSSTAYIQLNSLTSEDSAVYYCAREAGSSFGSSCNYWGQGTTLTVSASTKGPSVFPLAPCSRSTSESTAALGCLVKDYFPEPVTVSWNSGALTSGVHTFPAVLQSSGLYSLSSVVTVPSSNFGTQTYTCNVDHKPSNTKVDKTVERKCCVECPPCPAPPVAGPSVFLFPPKPKDTLMISRTPEVTCVVVDVSHEDPEVQFNWYVDGVEVHNAKTKPREEQFNSTFRVVSVLTVVHQDWLNGKEYKCKVSNKGLPAPIEKTISKTKGQPREPQVYTLPPSREEMTKNQVSLTCLVKGFYPSDIAVEWESNGQPENNYKTTPPMLDSDGSFFLYSKLTVDKSRWQQGNVFSCSVMHEALHNHYTQKSLSLSPGK
# light: B1 light
# notes: also called PUMA1-IgG2; PUMA 1 IgG2; not shown: human kappa light chain constant region (vector pFUSE2-CLIg-hk)
# B16: PUMA 1 human IgG4 (canonical, isoallotype IgG4-01) (antibody)
# heavy: EVQLQQSGPELVKPGASVKMSCKASGYTFTDYYMKWVKQSHGKSLEWIGDLNPNNGDTFYNQKFKGKATLTVDKSSSTAYIQLNSLTSEDSAVYYCAREAGSSFGSSCNYWGQGTTLTVSASTKGPSVFPLAPCSRSTSESTAALGCLVKDYFPEPVTVSWNSGALTSGVHTFPAVLQSSGLYSLSSVVTVPSSSLGTKTYTCNVDHKPSNTKVDKRVESKYGPPCPSCPAPEFLGGPSVFLFPPKPKDTLMISRTPEVTCVVVDVSQEDPEVQFNWYVDGVEVHNAKTKPREEQFNSTYRVVSVLTVLHQDWLNGKEYKCKVSNKGLPSSIEKTISKAKGQPREPQVYTLPPSQEEMTKNQVSLTCLVKGFYPSDIAVEWESNGQPENNYKTTPPVLDSDGSFFLYSRLTVDKSRWQEGNVFSCSVMHEALHNHYTQKSLSLSPGK
# light: B1 light
# notes: also called PUMA1-IgG4; PUMA 1 IgG4; not shown: human kappa light chain constant region (vector pFUSE2-CLIg-hk)
# B17: PUMA 1 human IgG3 (canonical, isoallotype IgG3-01) (antibody)
# heavy: EVQLQQSGPELVKPGASVKMSCKASGYTFTDYYMKWVKQSHGKSLEWIGDLNPNNGDTFYNQKFKGKATLTVDKSSSTAYIQLNSLTSEDSAVYYCAREAGSSFGSSCNYWGQGTTLTVSASTKGPSVFPLAPCSRSTSGGTAALGCLVKDYFPEPVTVSWNSGALTSGVHTFPAVLQSSGLYSLSSVVTVPSSSLGTQTYTCNVNHKPSNTKVDKRVELKTPLGDTTHTCPRCPEPKSCDTPPPCPRCPEPKSCDTPPPCPRCPEPKSCDTPPPCPRCPAPELLGGPSVFLFPPKPKDTLMISRTPEVTCVVVDVSHEDPEVQFKWYVDGVEVHNAKTKPREEQYNSTFRVVSVLTVLHQDWLNGKEYKCKVSNKALPAPIEKTISKTKGQPREPQVYTLPPSREEMTKNQVSLTCLVKGFYPSDIAVEWESSGQPENNYNTTPPMLDSDGSFFLYSKLTVDKSRWQQGNIFSCSVMHEALHNRFTQKSLSLSPGK
# light: B1 light
# notes: also called PUMA1-IgG3; PUMA 1 IgG3; not shown: human kappa light chain constant region (vector pFUSE2-CLIg-hk)
# Target: T1, human Kell glycoprotein, K form (KEL1)
# Experiment: flow cytometry on human K+k+ RBCs, detected with polyclonal anti-IgG
# Description: Flow cytometry consisted of incubating test RBCs with PUMA 1 variants, followed by the anti-IgG being evaluated, followed by a detection reagent. Test RBCs included RBCs from K mice, wild-type mice, and reagent RBCs from humans with the phenotype of (K+k+) or (K−k+). Test RBCs were resuspended in 50 microliters of supernatants of PUMA 1 isoallotypes; in some cases a 1/10 dilution in phosphate buffered saline (PBS) was used. For purified IgG1-IgG4 PUMA 1, the antibodies were diluted in PBS at the indicated concentrations. The tested anti-IgG reagents were used undiluted. Detection reagents consisted of donkey anti-rabbit conjugated to phycoerythrin at a 1/200 dilution (Affymetrix cat #12-4739-81, Santa Clara, Calif.), goat anti-mouse IgM conjugated to allophycocyanin at a 1/100 dilution (BD Biosciences, cat #550826, San Jose, Calif.), and goat anti-mouse Igs conjugated to allophycocyanin at a 1/100 dilution (SouthernBiotech cat #1020-11s, Birmingham, Ala.). All anti-IgG subclass antibodies were conjugated to phycoerythrin, were purchased from SouthernBiotech (catalog numbers 9056-09, 9070-09, 9210-09, 9200-09), and were used at a dilution of 1.200. All incubations were performed for 30 min at room temperature, followed by three washes with PBS. All flow cytometry was performed on an Accuri 4 color cytometer (BD biosciences, San Jose Calif.) and all data was analyzed with Flo-Jo version 10.
# To assess the sensitivity of commercially available anti-IgG preparations for different human IgG subclasses bound to RBCs, K+k+ RBCs were first incubated with PUMA 1 of the different human IgG subclasses, followed by incubation with anti-IgG. Treated RBCs were then stained with a fluorescently labeled antibody specific for the species in which the anti-IgG was generated (and non-reactive with human IgG). For each anti-IgG, the same secondary antibody was used to detect binding of the anti-IgG to each human PUMA 1 IgG subclass. To assess relative sensitivity, titrations of each PUMA 1 IgG subclass were carried out and samples were analyzed by flow cytometry using mean fluorescent intensity (MFI) to quantify staining (FIGS. 28A, 28B).
row,binding result,Binder
1,binds,B1
2,binds,B2
3,binds,B3
4,binds,B4
5,binds,B5
6,binds,B6
7,binds,B7
8,binds,B8
9,binds,B9
10,binds,B10
11,binds,B11
12,binds,B12
13,binds,B13

# Target: T2, human Kell glycoprotein, k form (KEL2)
# Experiment: flow cytometry on human K-k+ RBCs
row,binding result,Binder
1,no binding,B1
2,no binding,B2
3,no binding,B3
4,no binding,B4
5,no binding,B14
6,no binding,B5
7,no binding,B6
8,no binding,B7
9,no binding,B8
10,no binding,B9
11,no binding,B15
12,no binding,B16
13,no binding,B10
14,no binding,B11
15,no binding,B12
16,no binding,B13
17,no binding,B17

# From patent US20210356479A1 (BLOODWORKS, published 2021)
